Laboratory results: a protein production outcome set (Wang et al. 2014)

Assay: label from the status in PepcDB records
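Further: failed if final PepcDB status was selected cloned or expressed and not failed if soluble or beyond.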

Question: For “MNPTFHADKPIYSQISDWMKKQMITGEWKGEDKLPSVREMGVKLAVNPNTVSRAYQELERAGYIYAKRGMGSFVTSDKALFDQLKKELADAITERFLEEAKSIGLDDQTAIELLIKRSRNHE”, which protein production is on record?
Answer: The protein production was “not failed”.

Question: With “MNQHLLGNPKLTVTHVNEVKAGINHIVVDSVQYGNQEMIMEKDGTVEMRDGEKLYINIFRPNKDGKFPVVMSADTYGKDNKPKITNMGALWPTLGTIPTSSFTPEESPDPGFWVPNDYVVVKVALRGSDKSKGVLSPWSKREAEDYYEVIEWAANQSWSNGNIGTNGVSYLAVTQWWVASLNPPHLKAMIPWEGLNDMYREVAFHGGIPDTGFYRFWTQGIFARWTDNPNIEDLIQAQQEHPLFDDFWKQRQVPLSQIKTPLLTCASWSTQGLHNRGSFEGFKQAASEEKWLYVHGRKEWESYYARENLERQKSFFDFYLKEENNDWKDTPHVIYEVRDQFYKGEFKSASAFPLPNAEYTPLYLNAENHTLNHAKISSAHVAQYDSEDKQQDVSFKYTFDKDTELVGNMNLKLWVSTKDSDDMDLFAGIKKLDRRGNEVNFPDFNHIENGQVATGWLRVSHRELDQEKSSIAQPWHKHETELKLSQDEIVPVEIELLPSGTLFKQGETLEVVVKGSEIVIGNSTPGMKTRYEHEETVNKGMHMIYTGGKYDSQLIIPIVN” as the sequence, how does the protein production read?
Answer: Its protein production is “not failed”.

Question: For “MNQIAPRRFSGLRIVLLVLLAVLAFLLLMPTRVQPVAWNPAPAPSLSQGPFAENQKLKAVQPVGARDIDGPEALLLEHEQLLSGLHDGRVIQSSLDGSALKVLVNTGGRPLGLARHPDGRLIIADAIKGLLALDSQGQLQTLSTEANGLKFGFTDDVAVDAAGRYAYFSDATSRWGYGHDGEAVIEHGADGRLLRYDFQSGTTEVLLDRLEFANGIALGPDEAYVLVNETGAYRISRYWLKGDKAGSHDLFIDNLPGLPDNLSFNGAGRFWVALYAPRNPLLDATAPYPFVRKMLVRAMTVLPKPVEKRGFVLGLDTQGRVIANLQDGSSGNYSPITTVREYGDALYLGSLTARHMARLSLKEALAP”, which protein production is on record?
Answer: Its protein production is “failed”.

Question: For “MNQKISPPSQKLDGLFLLALSMAVFFVGVTEFMLSSMLGPLAQAFHTTTSGAAWLISSYAFSYAIAAPLLGYFSDRMQRRKLLLLALVLFAVDTLAIVIAPTLEIAVVLRVIGGIASAIIIPTTFALVAEVVAPQRQAGAMGQVMLGMTLGIAAGPALAGLLSDFFGWAAPFLLVSCGCVLVFLMARQRLPVQAVAPRAEGHALGWCRQWSILRPLIAKGAWNGTGVAGLLLSGEVLRQRYGFSTAQIGVSIAAFGVGLAVGNLAAGYLRRYLKRDEDMLLLVLALLVLSMSTFMLLPLPLPVALCCLGAWGAALGLGAPAGTVVLASRSGPDKGMVLSFAETFNNIAILASVPLAVRLLELKGPPATLWVLGIGLGIGAWFTVLDWFASRRSNEALPLRD”, which protein production is on record?
Answer: Its protein production is “failed”.

Question: For “MNQKMIIGNAEAICLPELGITHLEARIDTGAQTSSLHVDNIDCFEKDGQSYVAFDLHPDVYHLEQVVRCTAKLKANRKVKSSNGTFEHRCVITTMLRLGDQEWPIDITLTNREKMTYMMLLGRQGMADKVLVDPSQSHLLAS”, which protein production is on record?
Answer: The protein production was “not failed”.

Question: Which protein production does the source give for “MNQLIFDFAAHDYPSFDKFLGTENAELVYVLRHKHGQFIYVWGEEGAGKSHLLQAWVAQALEAGKNAAYIDAASMPLTDAAFEAEYLAVDQVEKLGNEEQALLFSIFNRFRNSGKGFLLLGSEYTPQQLVIREDLRTRMAYCLVYEVKPLTDQEKIDALASMAAARQVTVDSEIFEYLLKHWRRDMDSLMMMLDTLDNYAVTMGKRITLPLLRQLLKQQETQLEHHHHHH” here?
Answer: The protein production was “not failed”.

Question: For “MNQSPSILRKTRKGEYMAFADLAAEKTQGVDYDFLVLDRASAVAIVAPHGGWIEHGTSELATAVAGDDFSLYLFEGLKPKRPHSELHIPSEYFDENRCVDLVSRARIVIGMHGRADGDDPETIWLGGLGKELRDAIAAALEAAGFKAITSGHRLPGEHKNNICNRGINQAGVQLEPCRWSNRCLSATETHSTSATTAIISRLSIAA”, which protein production is on record?
Answer: Its protein production is “failed”.

Question: For “MNQTSSHSSLFSSSLPPVPDRPLSPSGRFNRLSYLAWYGFINLIGLMCLFGTGLIMGIFSLSQVTWDDQLLNALSGSFGFIMFGISILFFYFHVVLMIRRLHDTNRSGWWCLLFFVPVIQFILILYLLFIPGSKASNDYGIPRPSPVWEKILGWMIVIVLLLSLLMLGRLVSFMLGTGHLDFPQELIPKNTGYF”, which protein production is on record?
Answer: The protein production was “failed”.

Question: For “MNQVEMTEFPVGKPQEALYGVASTPDGALWFTLAKGNAIGRLSPDGAVSRFPLPHADGQPTTITCGPDGRPWFTLSSANAIGRLAPDGALRMFELPRPASRPFGIAGGHDGCLWFAEMAGDRIGRITIDGDIEEYDLPVKGGYPSCMAAGRDGLMWFTLNQAGAVGSISATAAPRIFPLGAADAAPVGIASDAQGALWIAQAGNGAIARFDAGGRITEFPLHSRAARPHAIAADAAGNLWFTEWGANRIGRISEAGDLAGYELAAPGSEPHGIAIDPHGCVWAALETGRLVRLQASPRDLEHHHHHH”, which protein production is on record?
Answer: The protein production was “failed”.

Question: With “MNRARIIVAGIGPGGASDITPAVLSAIGRSDVVVGYKYYFRFIEPYLRPDTHCVDTGMKKERQRAEEAFGYALSGKTVCVISSGDAGIYGMAPLIYEMKRAKGVEMDIEVLPGISAFQKAASLLGAPIGHDLCLISLSDLMTPWPIIEKRIVAAASADFVTAIYNPKSEGRYWQLYRFVEIFMQYRSADTPVGLVRQAGREEEQVTVTTLGEFDPEVVDMFTVVLVGNSQSYCYEGHFITPRGYYPEEEIEAKGIGQEIMIKSFRTIEKELHRQDWPLDHKWALLHAIHTTADFDMENILYTDAGAVASLYEMIEAGRLRTIVTDVTMVTSGIRKGALERLGVEAKCYLHDPRVAELAARHGITRTQAGIRLAVEEHPDALFAFGNAPTALQELADLIRRGKASPAGIIAAPVGFVHVQESKHAVKPFRSIPKIIVEGRKGGSNLAATLVNAILCYNDAEQLRPGRDV” as the sequence, how does the protein production read?
Answer: The protein production was “failed”.

Question: With “MNRIEHYHDWLRDAHAMEKQAESMLESMASRIDNYPELRARIEQHLSETKNQIVQLETILDRNDISRSVIKDSMSKMAALGQSIGGIFPSDEIVKGSISGYVFEQFEIACYTSLLAAAKNAGDTASIPTIEAILNEEKHMADWLIQHIPQTTEKFLIRSETDGVEAKK” as the sequence, how does the protein production read?
Answer: Its protein production is “not failed”.

Question: With “MNRIKAVGYENNELKEKAQLLADQLNLQLDQNADTCLFVTPEKLTLKIRNFSLMFADFSAMTWSKRRGEGKRQGLIRACKPTKGIKILDATAGWGKDAAILATFGADVVMLERHPVMAALLADALSRRNEADIQKMCLSLIASDAISFLHSLQEKDYPDIIYIDPMHPERNKSALVKKEMQVLQQLIGTDHDAMELIELSLSHVKSRVVVKWPQKVKPLLPPDASIDGKTVRFDIYMAQFSSN” as the sequence, how does the protein production read?
Answer: Its protein production is “failed”.

Question: With “MNRNGLLIALALFAGIGLTFGLFPGLDLWLAGLFYDTAAKTFPMRSMPDLEFARDFAMWVAWAIAAPSIFALVYKMIRPDRPLVMPGRTVAFLLISITLSAGVLTNMTFKSHWGRPRPAAVTEFNGPWQFKAWWDNSGACPKNCSFFSGEGATAYWTFAPAALTPPAVRPYAYAAAFTFGTVTSGLRMAFGGHFFTDVAIAGLVTFLVIWLLYALIYRWAWSRTSDEAIDAALTRAFWPLYRLRLKKWRGQDIGPAPAA” as the sequence, how does the protein production read?
Answer: The protein production was “failed”.

Question: With “MNRNGQRRFLEFFAGGGMARLGLGADWACAFANDFDPVKAATYRANFADAGKHFQEGDVFALSAERLPDADLAWASSPCQDFSLAGARAGLAGGRSSAFFGFWSLMRSLSAEGRAPSVIVIENVVGLLTSHGGADFTALCQALHEEGYRFGALEIDAGAFVPQSRPRVFVVATRNPPGDLVGSSAFHTRAVREAAARLPADLQASWVWWGAPSPPARNTDLASMLEPDDRAVW” as the sequence, how does the protein production read?
Answer: Its protein production is “failed”.

Question: For “MNRNLLLLLCSLFCFIAIGKPSDFPPVPNPPKLINDFAGMLSPAEVAELERKVNTFNDSTSIEISVVIITNLGDYDIAEYAFQLGALWGIGKDKKDNGVLLLISKENRKAFIATGYGMEGVLPDARCKRIIQAELIPQFKRSNYFNGINFTIDAIMRYSKNEYTADPVAANANRIKPAYVLLFIIGVIILVSFLNRNNNSGSNRGGNNGGYGSGGGGLLGGLLGGAIGSGYRGRSYGGGFGSGSSGGGFGGFGGGGFGGGGAGGDW”, which protein production is on record?
Answer: Its protein production is “failed”.

Question: For “MNRNRLPALTPGLAWSRPMNGAVDHKGYEQPTYDLEFAETATEIRRYGPYLVAEVTMAGDRSTAITRGFRVLARYIFGGNAESRRIEMTVPVSQLPAGEDLWTVRFTMPAVRSASLLPAPKDSRIRFVTVPPSRQAVRRFSGWPTDHALRRQAEGLAHWIAERGLPKREGPYFYFYDSPMTLPWQRRNEVAFGLGEGLEHHHHHH”, which protein production is on record?
Answer: Its protein production is “not failed”.

Question: For “MNRPHSATGDRPLALVDEHAHAWSPKTARARFRKGLTGPTAGVAAGHTQANLISVPADWAYDMLLFCTRNPQPCPVLDVTDAGSWTTVLADGADLRTDLPRYRVWRDGELVDEPSDVREHWRDDLVTFLIGCSFTFEWALAAAGVPIRHVEQGRNVPMYVTSRACRPAGRLRGPMVVSMRPVPPAHLSAAIHESSLLPAVHGSPVHCGDPSALGIDDLDRPDFGEAVYREPDDIPVFWACGVTPQAAVMASRPPFALTHAPGQMFLTDARDEQYRVALEHHHHHH”, which protein production is on record?
Answer: Its protein production is “failed”.

Question: With “MNRTARRDGTPEKPRRGSQGGSRGDYGKPKRSHAKPQSANSGRPIKQRKQRDSEMLISNARPARHQHVGRREAGDGSTEG” as the sequence, how does the protein production read?
Answer: The protein production was “failed”.

Question: With “MNRTLAYKLGAIALLILLLLIPLLMIDGLIRDRQEVRDGVLQDIARSSSYSQRLTGPLLVVPYRRTVREWVTEEKTEKRVLQEREQRGELYFLPDRFALDGQMRTELRYRGIYQARLYHVDNKVAGYFQVPAHYGIEEDLEDYQFETPFLAMGISDIRGIENALRLSLNGASVDFEPGSRVGLLGSGVHAPLQGVDGRQAQRLEYAFDLSLLGSERLDIVPVGRDSQVILKADWPHPSFGGEFLPSEREITAQGFTARWQTSFFATNMEEALRSCVEEQRCDGFQARAFGVGLVDPVDQYLKADRAIKYALLFITLTFAGFFLFEVLKRLAVHPVQYALVGLALAFFYLLLLSLAEHVGFELAYLVSAGACVGLIGFYLCFVLRSVARGLGFSVGLAGLYGLLYGLLSAEDYALLMGSLLLFAVLAAVMVLTRRLDWYGVGRKDFPAVPARA” as the sequence, how does the protein production read?
Answer: Its protein production is “failed”.

Question: For “MNRVDLSIFIPDSLTAETGDLKIKTYKVVLIARAASIFGVKRIVIYHDDADGEARFIRDILTYMDTPQYLRRKVFPIMRELKHVGILPPLRTPHHPTGKPVTGEYRQGLTVKRVKKGTLVDIGADKLALCREKLTVNRIMSFRVVRLGKEILIEPDEPEDRYWGYEVLDTRRNLAESLKTVGADVVVATSRNASPITSILDEVKTRMRGAREAAILFGGPYKGLPEIDADIWVNTLPGQCTETVRTEEAVLATLSVFNMLTQIDEKDE”, which protein production is on record?
Answer: The protein production was “not failed”.

Question: For “MNRYQALFQRLSAAQQGAFVPFVTIGDPNPEQSLAIMQTLIDAGADALELGMPFSDPLADGPTIQGANLRALAAKTTPDICFELIAQIRARNPETPIGLLMYANLVYARGIDDFYQRCQKAGVDSVLIADVPTNESQPFVAAAEKFGIQPIFIAPPTASDETLRAVAQLGKGYTYLLSRAGVTGAETKANMPVHALLERLQQFDAPPALLGFGISEPAQVKQAIEAGAAGAISGSAVVKIIETHLDNPAKQLTELANFTQAMKKATKI”, which protein production is on record?
Answer: The protein production was “not failed”.

Question: Which protein production does the source give for “MNSDPTRERILHGLITLYILKELVKRPMHGYELQKSMFETTGQALPQGSIYILLKTMKERGFVISESSVNEKGQQLTVYHITDAGKKFLCDHSQALQLARKIIDDLLSTVDIIENRN” here?
Answer: Its protein production is “not failed”.

Question: With “MNSELTFKQGLKDTMPTVFGYIGIGIAFGMIGHSEGFSVWVILLLSLIVYAGSAQFIMVSMLATHSPIMSIVLSVFLVNSRIILMSMTTASYFKNESLLKNILLGTLLTDESFALGMNKQNYTEGKLNFSWFNASNLLAYLVWALASAIGALLGNLLANPEKLGLGFAVIAMFIGLLYLQLISDKTLGLMLQLVMVGITLVLFYFGLIFLPSNLLVLFVTLIACALGVGVKRVFF” as the sequence, how does the protein production read?
Answer: Its protein production is “failed”.
